Tested on: MS2 coat protein
Assay: apparent KD of MS2 coat protein; designed switch direction (-1 OFF switch, 1 ON switch): -1; higher = weaker reporter binding
Summary of the method: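 Each step of the titration lasted 0.8–1.5 h at the lowest concentration and 10–20 min at the highest. The protein, SNAP-549-labelled MS2 coat protein, went from 0.7 or 1.5 nM doubling to 3 µM over RNA switches transcribed on Illumina chips by stalled E. coli RNA polymerase. Normalised cluster fluorescence was curve-fitted, and the per-design median over clusters is given as apparent KD.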

[1] = Eterna round: R95, input ligand: FMN 200 uM
[2] = Eterna round: R95, input ligand: microRNA oligo, concentration not stated
[3] = Eterna round: R95, input ligand: none
[4] = input ligand: microRNA oligo, concentration not stated

Sequence	apparent KD of MS2 coat protein [2]	apparent KD of MS2 coat protein (input ligand: FMN 200 uM)	apparent KD of MS2 coat protein (input ligand: none)	other results
CUUCCCAAAGGAUAUCACGGUAAUAACAUGAGGAUCACCCAUGUGCAAUUCGUGUCCCUGUGAGAAGGUUGAGAAG [Anlabe] (puzzle: Exclusion 5)	11.1 nM	–	–	apparent KD of MS2 coat protein [1]: 17.9 nM; apparent KD of MS2 coat protein [3]: 12 nM
UUUUAACAUGAGGAUCACCCAUGUGAGGAUAUCGAAAUUUAUAUUAAUAUUAAUAUUACGAGAAGGCACAUUUU [JMF 26] (puzzle: Exclusion 1)	77 nM	–	–	–
AGAAUUGCCCAUGGCCGCAAGCUUUUUGCUUGUCUUACCACAUGAGGAUCACCCAUGUGACAUGGGCUCCUUAUAAU [Anargees] (puzzle: Sensor v3, turn-off variant 2)	9.32 nM	–	–	apparent KD of MS2 coat protein [1]: 13.9 nM; apparent KD of MS2 coat protein [3]: 11.8 nM
UAGAUGGCUCAGGAUAUUUGCCAACUAACCCGCAAAGAAGGGAGCACAUGAGGAUCACCCAUGUGAUCGAACAA [Xeortibeza] (puzzle: Exclusion 6)	22.6 nM	–	–	apparent KD of MS2 coat protein [1]: 114 nM; apparent KD of MS2 coat protein [3]: 26.1 nM
UCGGCGCGAGGAUAUGCGGCUCCUGCUUCGGGCCGGAGCGUACAUGAGGAUCACCCAUGUAGAAGGCGCGCCGC [Apr-15 SS2-39] (puzzle: Exclusion 2)	10.2 nM	–	–	–
GCAUGAUACUAGGAUAUCAGCAUACUUCAAUGUUGAGAAGGAGUAACAUGAGGAUCACCCAUGUAUCCAACAUG [Exclusion 6 - 4:a] (puzzle: Exclusion 6)	38.5 nM	–	–	–
GCAGUAUGAGUUAGGAUAUGAUGAUUUUUUUUAUUUCAGAAGGAACUUGAGGAUCACCCAAGUUAAGAUUUGGU [JR_BMEx4_Sub068] (Eterna round: R97, puzzle: Brourd's mod of Exclusion 4)	–	45.6 nM	24.6 nM	–
CUAGCUAUUGUAGGAUAUCGAUGUGUUUCACAUCGAGAAGGACAUGAGGAUCACCCAUGUGAAAGGAUCGUGAGAUCCAGCUAG [JL ENG1 3.76] (Eterna round: R96, puzzle: Exclusion NG 1)	–	81.9 nM	23.5 nM	apparent KD of MS2 coat protein [4]: 18.7 nM
UUCCAACGAGGAUAUCGAUGGUGGAACAUGAGGAUCACCCAUGUAUGAGAUAGUGUAGUUCGAGAAGGCGUUCAGU [JR_E5_Sub055] (puzzle: Exclusion 5)	41.9 nM	–	–	–
UGUCUUCAUAUCACAUGAGGAUCACCCAUGUUAUUCAUCUCGUAGGAUAUCGAGGUUUAUUAUUUCGAGAAGGACGUAUUGUUU [JR_ExcNG3_Sub076] (Eterna round: R96, puzzle: Exclusion NG 3)	–	199 nM	148 nM	apparent KD of MS2 coat protein [4]: 112 nM
AAACAAGCUCGGGUGAGGGAGACCACAGAAGGACCCAAAACAUGAGGAUCACCCAUGUCAAGAGUAGAGCUUGGCAU [high scoring solution 31] (Eterna round: R96, puzzle: Sensor v2, turn-off variant 2)	–	71 nM	75.4 nM	apparent KD of MS2 coat protein [4]: 57.4 nM
AAACUGUGAGGAUAUGGUGAGUAGUGCCUGAGCGCUGCUCACCAGAAGGCACAUGAGGAUCACCCAUGUAUAAA [Mat - Exclusion 4 - Mod of JL - D6] (puzzle: Exclusion 4)	24.2 nM	–	–	–
GUGUACUGAGGAUAUGCUGGAAUCUAGCGAAGCUAGGUUCCACAUGAGGAUCACCCAUGUAGAAGGCGGUACAC [Dot plot directed A v6] (puzzle: Exclusion 2)	29.1 nM	–	–	–
AUUUUGUGAGGAUAUUAGUUGUAGAAAGUUGUUAGUAUUGCUGAGAAGGCACAUGAGGAUCACCCAUGUACAAC [JR_Ex4_Sub038] (Eterna round: R97, puzzle: Exclusion 4)	–	20.6 nM	19.1 nM	–
GUCAGCUCGUGAGGAUAUACAUGAUAGAUCGAUUAAUUAAUUAAUUUAACAUGAGGAUCACCCAUGUAGAAGGUACGAGCUGAC [ENG2/1-C1] (Eterna round: R96, puzzle: Exclusion NG 2)	–	–	–	apparent KD of MS2 coat protein [4]: 43.3 nM
AUAAAUAAGGAGGAUAUCGUAUCGGAAACGAUACGAGAAGGUCUAACAUGAGGAUCACCCAUGUUCCUCAAUAA [Mat - Exclusion 6 - Eli Mod - D47] (puzzle: Exclusion 6)	34.5 nM	–	–	–
GUGCCGCGAGGAUAUACAGACGGGUCCAUUACGUGUCUCGGACUUGAGGAUCACCCAAGUAGAAGGCGUUUCAG [salish99_ex2_r4_624] (Eterna round: R97, puzzle: Exclusion 2)	–	20.7 nM	38.4 nM	–
CUUUCGUGAGGAUAUGUGGCUUCGAAAGUGAGAUCGAGGCUACAGAAGGCACAUGAGGAUCACCCAUGUUCCUC [salish99_ex4_r4_214] (Eterna round: R97, puzzle: Exclusion 4)	–	371 nM	28.2 nM	–

Sequence	apparent KD of MS2 coat protein [2]	apparent KD of MS2 coat protein (input ligand: FMN 200 uM)	apparent KD of MS2 coat protein (input ligand: none)	other results
AGAUCACGAGGAUAUCCAGUGUAGUACAUGAGGAUCACCCAUGUUGAUCGUGGAUUCUUGGGAGAAGGCGUGGUUG [Eternabot (L2) Solution 100] (Eterna round: R97, puzzle: Exclusion 5)	–	237 nM	60.6 nM	–
UAGAAACAUGAGGAUCACCCAUGUGAGGAUAUGAAAAAGAAAAGAAAAGAAAGAAGAAUCAGAAGGCACAAAGA [salish99-ex1_r3_083] (puzzle: Exclusion 1)	25.9 nM	–	–	apparent KD of MS2 coat protein [1]: 33.6 nM; apparent KD of MS2 coat protein [3]: 23.6 nM
UUGGUGUCAGGAUAUGCUUAAUGUAUUUUAUUAUAAUAUAUACAUGAGGAUCACCCAUGUAGAAGGGACAUUGU [LRO-Excl2-08-Fireball XL5] (Eterna round: R97, puzzle: Exclusion 2)	–	125 nM	154 nM	–
GUUCGACAUGAGGAUCACCCAUGUGAGGAUAUACGAUUAGCUGCUAGGUAGUUAGUAUGUAGAAGGUGCGUGAA [EX1 #72] (Eterna round: R97, puzzle: Exclusion 1)	–	44 nM	41.6 nM	–
CAGUACUGAGGAUAUACAUGAGGAUCACCCAUGUGUUCCAGCUAGGAAACUAGCAGAAGUAGAAGGCAGUACUG [salish99_ex3_r3_067] (puzzle: Exclusion 3)	25.5 nM	–	–	apparent KD of MS2 coat protein [1]: 425 nM; apparent KD of MS2 coat protein [3]: 23.9 nM
ACUAAAUAAACAAGCAAUAAUCCAUCGUCUUAUACUAAAACAUGAGGAUCACCCAUGUAACAGGUGGUGUUAAAUAA [JR_Sensorv2_tov2_Sub1202] (Eterna round: R96, puzzle: Sensor v2, turn-off variant 2)	–	15.4 nM	19.1 nM	apparent KD of MS2 coat protein [4]: 40.6 nM
AAACCGCAAGGAUAUACUUGCGGUGGUGUUCGAAACUUUCUACUUGAGGAUCACCCAAGUAGAAGGUGCGGUAA [jl-ex2.4.71 ViennaUCT mod] (Eterna round: R97, puzzle: Exclusion 2)	–	13.2 nM	12.9 nM	–
GUUAGUUAAGGAUAUACAGGGAGCUGCGGCGUCUCGCCGCAACAUGAGGAUCACCCAUGUAGAAGGUGGCCAUU [JL ViennaUCT Enbibi mod 3] (puzzle: Exclusion 2)	471 nM	–	–	–
AAGUAGUGUGUGAGGAUAUUGGUGGAAUGACACAUUAAGAAGGUACAUGAGGAUCACCCAUGUGGGUAAACACG [Brourd's EX4 #23] (Eterna round: R97, puzzle: Brourd's mod of Exclusion 4)	–	137 nM	146 nM	–
GAGAUACAUGAGGAUCACCCAUGUGAGGAUAUGAGCACGCCGGUGACGGUGAUAAGAAUCAGAAGGCACAAUGG [Mat - Exclusion 1 - JL Mod - D31] (Eterna round: R97, puzzle: Exclusion 1)	–	338 nM	453 nM	–
AAUGAUUGACGAGGAUAUUGUGGUAGAUCACGACGAGAAGGCGUAUGUCACAUGAGGAUCACCCAUGUGAGCUUUGUGGAUAGA [Ex NG1 #74] (Eterna round: R96, puzzle: Exclusion NG 1)	–	27.1 nM	20.7 nM	apparent KD of MS2 coat protein [4]: 16.1 nM
AAGAGUGCAGGAUAUACUUGGUAGGGCGGGUGGAUGAAGUGACAUGAGGAUCACCCAUGUAGAAGGGCAGAGAG [JR_Exclu2_Sub055] (puzzle: Exclusion 2)	21.4 nM	–	–	apparent KD of MS2 coat protein [1]: 24.6 nM; apparent KD of MS2 coat protein [3]: 25.7 nM
AGAUGGCGAGGAUAUACAUGAGGAUCACCCAUGUGAAGAAGAAGAGUGAGGAAGAAAAGUAGAAGGCGCUGUCA [Mat - Exclusion 3 - Mod of Salish D30] (puzzle: Exclusion 3)	45.8 nM	–	–	apparent KD of MS2 coat protein [1]: 137 nM; apparent KD of MS2 coat protein [3]: 64.7 nM
UACAUGAGGAUCACCCAUGUUUUGUCGUGUAUGGUAUUUAUCUAGGAUAUCAUGUUAUUUAUUUAUGAGAAGGAGAAUAUUAAU [JMF's solution 24] (Eterna round: R96, puzzle: Exclusion NG 3)	–	32.6 nM	32.5 nM	apparent KD of MS2 coat protein [4]: 29.1 nM
UUUGUACAUGAGGAUCACCCAUGUUAGGAUAUCUCGCCGUCGGCUUGCCGACGGUAUUAGAGAAGGGACAAGGG [JL Tixe mod 8] (puzzle: Exclusion 1)	94.2 nM	–	–	–
CGCCUGGGAGGAUAUCCAAUAUAUGACAUGAGGAUCACCCAUGUUUCCACUCGUACCUCCGGAGAAGGCCCGGCGC [Ex5 #30] (Eterna round: R97, puzzle: Exclusion 5)	–	23.1 nM	25.2 nM	–
UUAAGGGACUGAGGAUAUACAUGAAUUAUUUUUGUAGAAGGCAGAUUGUUAGUUUAUUCACUAUACAUGAGGAUCACCCAUGUU [JR_ExcNG1_Sub020] (Eterna round: R96, puzzle: Exclusion NG 1)	–	–	–	apparent KD of MS2 coat protein [4]: 18.3 nM
AUUGUUUGAUACCUCUAAUACAUGAGGAUCACCCAUGUUAUCGAGGAUAUGCAGAAUAGAUUAGAGCAGAAGGCGAAGUAAUAU [JR_ExcNG3_Sub026] (Eterna round: R96, puzzle: Exclusion NG 3)	–	31.1 nM	15.6 nM	apparent KD of MS2 coat protein [4]: 13.3 nM

— the supplement of paper PMC9170038
